Results on three molecules are retold here after patent publication US20200223933A1 (APTEVO RESERCH AND DEVELOPMENT, published 2020).

The target in test [1] is some of the FcγR expressing cell lines. Put plainly: flow cytometry on CHO cells stably expressing FcγR, anti-human IgG secondary (FIG. 30B). (In general: A flow cytometer gives signals particle by particle.)
Test [2] concerns the target T1, human CD137 on cells (human, UniProt Q07011 24-255). Put plainly: cell-based or functional assay.
Test [3] has as its target T1, human CD137 on cells. Put plainly: cell-based or functional assay. The source holds these as a separate data set.
In test [4] the target is T1, human CD137 on cells. Put plainly: flow cytometry, CD8 T cells gated from CD3-stimulated human PBMC, exp 1, n=3 donors. Here is the method: (§1) FACS staining and analysis of CD8 T cells: Following 48 h of incubation with or without CD3, human and cynomolgus PBMC were harvested, pooled, recounted and diluted in FACS buffer (PBS +0.5% BSA, 0.05% NaN₃) to a concentration of 5×10⁶ cells/mL. 50 μL (0.25×10⁶ cells) of cell solution was added to a 96-well FACS staining plate (Falcon #351190). Following 10 min of Fc-blocking in RT using Beriglobin (hIgG, 200 μg/mL), cells were washed in FACS buffer and then incubated for 1 h in 4° C. with 100 μL of the biotinylated ALG.APV-210 or negative control. The antibodies were added in a serial dilution starting either at 5 μg/mL titrating down in a 12 step 1/3 dilution down to 0.0003 μg/mL (exp 1) or 1 μg/mL titrating down in a 12 step 1/2 dilution down to 0.0005 μg/mL (exp 2). […] Cells were analysed for ALG.APV-210 binding using flow cytometry by gating on viable, single cells expressing CD3 and CD8. MFI values (FMO subtracted) from 2 independent experiments as well as normalized pooled data from 2 experiments and EC₅₀-values were determined and plotted using GraphPad Prism 7, non-linear regression log (agonist) vs. normalized response—variable slope, n=6 donors/group.

Test [5] deals with T1, human CD137 on cells. Put plainly: flow cytometry, normalized % positive cells of CD8 T cells from CD3-stimulated human PBMC, pooled data of 2 exp, n=6 donors. The procedure: as §1
Test [6] addresses T2, cynomolgus CD137 on cells (cynomolgus macaque, UniProt A9YYE7 24-254).
T2 construct: whole, on cells; also called cynomolgus macaque CD137; cynomolgus 4-1BB
Put plainly: flow cytometry, % positive cells of CD8 T cells gated from CD3-stimulated cynomolgus PBMC, exp 1, n=3 donors. The procedure:
(§2) Isolation and stimulation of cynomolgus PBMC: Cynomolgus PBMC were isolated from 20 mL of cynomolgus monkey blood from 3 different donors, obtained from Silabe, France by density gradient centrifugation using Lympholyte-mammal (Cedarlane labs) according to manufacturer's instructions. Non-tissue treated 96 well plates were pre-coated overnight at 4° C. with 3 μg/mL α-monkey CD3, clone FN-18 (Invitrogen #APS0301). The cynomolgus PBMC were then stimulated identically as the human PBMC described above
(§3) FACS staining and analysis of CD8 T cells: Following 48 h of incubation with or without CD3, human and cynomolgus PBMC were harvested, pooled, recounted and diluted in FACS buffer (PBS +0.5% BSA, 0.05% NaN₃) to a concentration of 5×10⁶ cells/mL. 50 μL (0.25×10⁶ cells) of cell solution was added to a 96-well FACS staining plate (Falcon #351190). […] Cells were analysed for ALG.APV-210 binding using flow cytometry by gating on viable, single cells expressing CD3 and CD8. MFI values (FMO subtracted) from 2 independent experiments as well as normalized pooled data from 2 experiments and EC₅₀-values were determined and plotted using GraphPad Prism 7, non-linear regression log (agonist) vs. normalized response—variable slope, n=6 donors/group.

Test [7] addresses T1, human CD137 on cells. Put plainly: flow cytometry, CD8 T cells gated from CD3-stimulated human PBMC, exp 2, n=3 donors. Here is the method:
as §1

Test [8] deals with T2, cynomolgus CD137 on cells. Put plainly: flow cytometry, CD8 T cells gated from CD3-stimulated cynomolgus PBMC, exp 2, n=3 donors. Here is the method: as §2, §3
Test [9] deals with T2, cynomolgus CD137 on cells. Put plainly: flow cytometry, CD8 T cells gated from CD3-stimulated cynomolgus PBMC, exp 1, n=3 donors. Here is the method: as §2, §3
Test [10] addresses T1, human CD137 on cells. Put plainly: flow cytometry, % positive cells of CD8 T cells gated from CD3-stimulated human PBMC, exp 1, n=3 donors. Here is the method: as §1

T1 sequence (Q07011 24-255 limits assumed): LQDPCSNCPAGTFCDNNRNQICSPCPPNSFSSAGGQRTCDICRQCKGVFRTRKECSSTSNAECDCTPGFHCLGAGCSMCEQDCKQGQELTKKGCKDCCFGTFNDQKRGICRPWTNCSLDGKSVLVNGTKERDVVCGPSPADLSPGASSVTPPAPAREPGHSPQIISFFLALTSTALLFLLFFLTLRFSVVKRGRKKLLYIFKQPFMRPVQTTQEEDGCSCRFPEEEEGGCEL
T2 sequence (A9YYE7 entry or part of it): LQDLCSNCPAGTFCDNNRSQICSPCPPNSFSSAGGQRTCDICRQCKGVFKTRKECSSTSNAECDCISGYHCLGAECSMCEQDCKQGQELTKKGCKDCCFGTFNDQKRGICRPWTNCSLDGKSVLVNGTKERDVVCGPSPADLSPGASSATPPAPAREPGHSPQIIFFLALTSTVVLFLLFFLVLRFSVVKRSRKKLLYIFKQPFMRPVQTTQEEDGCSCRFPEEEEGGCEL

control human IgG1 molecule (antibody) displayed a concentration at which significant binding was observed in [1] of 4 nM.

B1: ALG.APV-210 (bispecific antibody)
chain: EVQLLESGGGLVQPGGSLRLSCAASGFTFSHGSMYWVRQAPGKGLEWVSSISSGSGSTYYADSVKGRFTISHDNSKNTLYLQMNSLRAEDTAVYYCARSSYYGSYYSIDYWGQGTLVTVSSGGGGSGGGGSGGGGSGGGGSDIQMTQSPSSLSASVGDRVTITCRASQSISSYLNWYQQKPGKAPKLLIYAASSLQSGVPSRFSGSGSGTDFTLTISSLQPEDFATYYCQQYYDNLPTFGQGTKLEIKEPKSSDKTHTCPPCPAPEAAGAPSVFLFPPKPKDTLMISRTPEVTCVVVDVSHEDPEVKFNWYVDGVEVHNAKTKPREEQYNSTYRVVSVLTVLHQDWLNGKEYKCAVSNKALPAPIEKTISKAKGQPREPQVYTLPPSRDELTKNQVSLTCLVKGFYPSDIAVEWESNGQPENNYKTTPPVLDSDGSFFLYSKLTVDKSRWQQGNVFSCSVMHEALHNHYTQKSLSLSPGSGGGGSGGGGSGGGGSPSEVQLLESGGGLVQPGGSLRLSCAASGFTFSSYAMSWVRQAPGKCLEWVSAISGSGGSTYYADSVKGRFTISRDNSKNTLYLQMNSLRAEDTAVYYCARYYGGYYSAWMDYWGQGTLVTVSSGGGGSGGGGSGGGGSGGGGSDIQMTQSPSSLSASVGDRVTITCRASQSISSFLNWYQQKPGKAPKLLIYAASSLQSGVPSRFSGSGSGTDFTLTISSLQPEDSATYYCQQTYGYLHTFGCGTKLEIKR
In the case of B1, in the test with human CD137 on cells [2], the “EC50 (nM), IFNγ release of human CD8 T cells with CT26-h5T4^high cells” value amounted to 0.41 nM and the “EC50 (nM), IFNγ release of human CD8 T cells with CT26-h5T4^low cells” value worked out at 0.24 nM. Besides, in the test with human CD137 on cells [3], the “maximal IFNγ release with CT26-h5T4^low cells relative to CT26-h5T4^high cells” value was found to be 82% and the “maximal IFNγ release with CT26-wt cells relative to CT26-h5T4^high cells” value was 7%.

B2: biotinylated ALG.APV-210 (bispecific antibody)
chain: B1 chain
modifications: biotinylated (sites not given)
notes: also called ALG.APV-210 (biotinylated for FACS detection)
On to B2, for which the half-maximal effective concentration (EC50 (read off the curve)) with human CD137 on cells [4] was around 300 pM; in [6], around 20 pM; with human CD137 on cells [7], around 200 pM; in [8] it was around 200 pM; in test [9], around 300 pM; in the test with human CD137 on cells [10] it was around 30 pM. Also, in the test with human CD137 on cells [5], the concentration for a half-maximal effect (EC50) came out at 27 pM.

One may read the EC50 (read off the curve) as the concentration at which the effect is half-maximal. For orientation: EC50 means the concentration giving half of the maximal effect. The low end stands for higher potency in that assay, the high end for lower potency in that assay.
